Test results as given in patent US7919295B2, “Polyol oxidases” (Danisco US Inc., priority 2006, dated 2011).

Columns and labels:
[1] = Substrate range study: SCO6147 SOx activity on D-sorbitol versus D-xylitol; type: biochemical, Streptomyces lividans; details: SOx transformed in S. lividans; substrates 50 mM, pH 7.0
Description: Sorbitol oxidase obtained using the methods described in Example 1, was tested for finding its activity with various polyol substrates. All substrates used in the assay were 50 mM in 10 mM phosphate buffer pH 7.0. The relative activity using sorbitol as (++++++=100%) is shown below in Table 3.

[2] = cited from earlier work
[3] = Stability and bleaching performance of SOx in HDL laundry wash conditions
Description: In this Example, methods to determine the stability and bleaching performance of SOx (produced as described above) in AATCC liquid detergent laundry wash conditions are described. In these experiments, AATCC standard detergent (American Association of Textile Chemists and Colorists Heavy Duty Liquid Detergent Version 2003 without brightener; key components include linear alkane sulfonate, alcohol ethoxylate, propanediol, citric acid, fatty acid, castic soda and water; Testfabrics) was used.
Three bleachable cotton swatches with juice (STC CFT CS-15), wine (STC CFT CS-3), and tea (STC CFT BC-3) were used. The swatches were cut into 15 mm circles with a textile punch (Model B equipped with a ⅝″ die cutter; Model 93046; NAEF).
Single swatch disks were placed into each well of a 24-well microplate (Costar 3526). One (1) ml of washing solution pH 8, containing per liter, 1.5 ml AATCC HDL detergent, 75-100 mM sorbitol, 6 gpg hardness (diluted from stock 15000 gpg hardness solution containing 1.735 M calcium chloride and 0.67 M magnesium chloride), and 0.05% TAED (tetraacetylethylenediamine, Fluka) was added to each well. Five to fifty (5-50 ul) microliters of partially purified sorbitol oxidase or sorbitol oxidase obtain from a late fermentation run (108 hr EFT “effective fermentation time”) produced as described in Examples 1 and 2, were added with a positive displacement pipette to 3-8 wells in one column. The control wells contained no enzyme. The microplate was covered with a plastic lid and aluminum foil and incubated at 37° C. with 100 rpm gentle rotation for 14 hr. […]
One hundred microliters (100 ul) of 0.1 mM sodium carbonate were added to each well to elevate the pH to 10. […] The disks were inspected visually and then analyzed with a Reflectometer CR-200 (Minolta) calibrated on a standard white tile. The average L values were calculated as was the percent soil release (% SR=100%×(Final reflectance-Initial reflectance)/(Reflectance of a white standard-Initial reflectance). Graphs showing the results of these experiments are provided in FIGS. 5-8.

B1: POx of SEQ ID NO:4: sorbitol oxidase of Streptomyces lividans, gene identified from S. coelicolor SCO6147, expressed intracellularly in S. lividans g3s3 (protein)
chain: MGDITVTNWAGNITYTAKELLRPHSLDALRALVADSARVRVLGSGHSFNEIAEPGDGGVLLSLAGLPSVVDVDTAARTVRVGGGVRYAELARVVHARGLALPNMASLPHISVAGSVATGTHGSGVGNGSLASVVREVELVTADGSTVVIARGDERFGGAVTSLGALGVVTSLTLDLEPAYEMEQHVFTELPLAGLDPATFETVMAAAYSVSLFTDWRAPGFRQVWLKRRTDRPLDGFPYAAPAAEKMHPVPGMPAVNCTEQFGVPGPWHERLPHFRAEFTPSSGAELQSEYLMPREHALAALHAMDAIRETLAPVLQTCEIRTVAADAQWLSPAYGRDTVAAHFTWVEDTAAVLPVVRRLEEALVPFAARPHWGKVFTVPAGELRALYPRLADFGALAGALDPAGKFTNAFVRGVLAG
modifications: Streptomyces lividans
notes: sorbitol oxidase of Streptomyces lividans, gene identified from S. coelicolor SCO6147, expressed intracellularly in S. lividans g3s3
- activity on D-sorbitol relative to D-xylitol [1]: 2.1 times

B2: sorbitol oxidase from Streptomyces species H-7775: sorbitol oxidase of Streptomyces species H-7775, Genbank AB000519, 420 amino acids (protein)
chain: MTPAEKNWAGNITFGAKRLCVPRSVRELRETVAASGAVRPLGTRHSFNTVADTSGDHVSLAGLPRVVDIDVPGRAVSLSAGLRFGEFAAELHARGLALANLGSLPHISVAGAVATGTHGSGVGNRSLAGAVRALSLVTADGETRTLRRTDEDFAGAVVSLGALGVVTSLELDLVPAFEVRQWVYEDLPEATLAARFDEVMSAAYSVSVFTDWRPGPVGQVWLKQRVGDEGARSVMPAEWLGARLADGPRHPVPGMPAGNCTAQQGVPGPWHERLPHFRMEFTPSNGDELQSEYFVARADAVAAYEALARLRDRIAPVLQVSELRTVAADDLWLSPAHGRDSVAFHFTWVPDAAAVAPVAGAIEEALAPFGARPHWGKVFSTAPEVLRTLYPRYADFEELVGRHDPEGTFRNAFLDRYFRR
modifications: Streptomyces H-7775
notes: sorbitol oxidase of Streptomyces species H-7775, Genbank AB000519, 420 amino acids
- pH range in which enzyme is stable ([2]; 24 hours at 30° C.): 7.5-10 pH
- optimum temperature ([2]; at pH 7.5): 50 °C

B3: sorbitol oxidase: partially purified sorbitol oxidase or fermentation broth cell lysate (108 hr EFT) used for biobleaching (protein)
chain: B2 chain
modifications: Streptomyces H-7775
notes: partially purified sorbitol oxidase or fermentation broth cell lysate (108 hr EFT) used for biobleaching
- stability in typical liquid detergent system ([3]; AATCC HDL detergent, pH 8, 37° C., 14 hr): stable
- hydrogen peroxide production in detergent ([3]; in presence of sorbitol mixed with detergent and atmospheric oxygen): able to produce effective concentration of hydrogen peroxide
- bleaching of colored stains ([3]; with bleach booster TAED, blueberry, tea and wine stains, FIGS. 5-8): able to help bleach
